Experimental data: patent publication US20260070940A1 (Hoffmann-La Roche, published 2026)

T1: MCSP antigen, amino acids 1553 to 2184 of matured MCSP with C-terminal avi-tag and His-tag, biotinylated (Homo sapiens (Human), UniProt Q6UVK1 1582-2213, limits assumed, biotin on the avi-tag)
T1 construct: also called recombinant MCSP
T1 sequence: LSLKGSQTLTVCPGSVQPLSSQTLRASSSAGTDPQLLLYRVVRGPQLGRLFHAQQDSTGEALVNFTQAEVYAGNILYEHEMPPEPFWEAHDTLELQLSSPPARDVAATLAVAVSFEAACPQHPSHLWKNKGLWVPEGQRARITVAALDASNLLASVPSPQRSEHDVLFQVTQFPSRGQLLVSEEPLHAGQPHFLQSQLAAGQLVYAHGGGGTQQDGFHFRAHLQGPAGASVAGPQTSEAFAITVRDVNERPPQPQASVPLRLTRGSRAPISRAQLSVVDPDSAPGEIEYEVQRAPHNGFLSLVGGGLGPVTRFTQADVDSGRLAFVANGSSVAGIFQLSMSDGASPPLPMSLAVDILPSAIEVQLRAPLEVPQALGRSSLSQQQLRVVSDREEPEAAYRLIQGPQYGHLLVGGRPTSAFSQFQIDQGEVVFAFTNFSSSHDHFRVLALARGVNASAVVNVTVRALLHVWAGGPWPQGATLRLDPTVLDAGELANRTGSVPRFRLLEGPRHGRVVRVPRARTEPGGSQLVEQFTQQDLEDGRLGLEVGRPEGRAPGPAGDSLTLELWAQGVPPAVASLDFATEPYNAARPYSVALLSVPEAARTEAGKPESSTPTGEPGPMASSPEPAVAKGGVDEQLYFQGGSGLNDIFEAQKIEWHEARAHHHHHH

T2: hu(NA1)BA-avi-His, biotinylated (human, biotin on the avi-tag)
T2 construct: CEACAM5 domains N and A1 followed by two CEACAM1 Ig domains, avi-tag and his-tag; also called CEA antigen; chimera of CEACAM5 domains N and A1 on CEACAM1
T2 chain: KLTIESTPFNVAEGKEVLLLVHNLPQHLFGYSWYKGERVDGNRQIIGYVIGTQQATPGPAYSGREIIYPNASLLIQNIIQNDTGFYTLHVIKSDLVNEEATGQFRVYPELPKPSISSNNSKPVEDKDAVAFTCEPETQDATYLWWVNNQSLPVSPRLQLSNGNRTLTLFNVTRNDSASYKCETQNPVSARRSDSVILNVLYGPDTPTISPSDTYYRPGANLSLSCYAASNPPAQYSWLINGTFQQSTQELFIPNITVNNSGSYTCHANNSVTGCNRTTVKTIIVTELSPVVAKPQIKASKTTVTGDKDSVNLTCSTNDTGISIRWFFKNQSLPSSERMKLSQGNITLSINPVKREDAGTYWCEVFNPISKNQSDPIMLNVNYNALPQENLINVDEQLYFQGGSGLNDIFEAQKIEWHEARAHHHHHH

T3: full-length human CEA with N-terminal SNAP tag on transfected HEK293 cells (human, UniProt P06731 35-685, SNAP tag labelled with terbium)
T3 construct: whole, on cells; also called hu CEA-SNAP; CEACAM5
T3 sequence (looked up): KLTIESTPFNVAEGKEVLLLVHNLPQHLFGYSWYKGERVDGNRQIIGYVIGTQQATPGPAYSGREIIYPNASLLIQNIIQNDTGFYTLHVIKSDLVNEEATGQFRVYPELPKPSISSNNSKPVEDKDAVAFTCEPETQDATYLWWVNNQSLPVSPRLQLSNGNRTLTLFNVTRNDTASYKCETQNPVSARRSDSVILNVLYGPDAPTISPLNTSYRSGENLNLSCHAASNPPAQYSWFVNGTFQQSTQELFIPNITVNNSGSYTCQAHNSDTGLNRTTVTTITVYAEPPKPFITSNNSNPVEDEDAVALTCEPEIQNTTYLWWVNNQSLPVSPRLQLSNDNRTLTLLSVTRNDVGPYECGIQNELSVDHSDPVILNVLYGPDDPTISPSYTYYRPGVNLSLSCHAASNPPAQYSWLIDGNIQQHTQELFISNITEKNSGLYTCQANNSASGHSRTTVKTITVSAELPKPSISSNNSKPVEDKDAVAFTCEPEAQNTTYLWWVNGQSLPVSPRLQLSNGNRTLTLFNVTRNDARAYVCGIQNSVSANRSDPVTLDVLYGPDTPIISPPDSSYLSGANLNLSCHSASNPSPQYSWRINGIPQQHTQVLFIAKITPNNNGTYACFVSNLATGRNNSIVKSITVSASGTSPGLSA


Assays:
[1] = molecular target: T1, MCSP antigen, amino acids 1553 to 2184 …; assay: SPR, MCSP immobilised
[2] = molecular target: T4, human FAP avi his, biotinylated (human, UniProt Q12884 27-759, biotin on the avi-tag); assay: SPR, bacterial supernatant;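 also: SPR at 25 °C with biotinylated human or murine FAP captured via neutravidin, aVH-containing bacterial supernatants diluted 1:3 as analyte, 600 s dissociation, blank supernatant without aVH as reference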
T4 construct: also called huFAP
Protocol: (§1) Clones that were identified in the “mix-and-read assay” performed with the Mirrorball instrument were further analyzed by Surface Plasmon Resonance (SPR). The off-rate of selected aVH clones was measured using a ProteOn XPR36 instrument (Biorad) at 25° C. with biotinylated human and murine FAP antigen immobilized on NLC chips by neutravidin capture. Immobilization of recombinant antigens (ligand): Antigens were diluted with PBST (10 mM phosphate, 150 mM sodium chloride pH 7.4, 0.005% Tween 20) to 10 μg/ml, then injected at 30 μl/minute at varying contact times, to achieve immobilization levels of 400, 800 or 1600 response units (RU) in vertical orientation. Injection of analytes: Injection direction was changed to horizontal orientation and 5 individual aVH-containing supernatants that were diluted 1:3 with PBST were injected simultaneously at 60 μl/min along separate channels 1-5, with association times between 120 and 180s, and dissociation times of 600s. Diluted bacterial supernatant without aVH was injected along the sixth channel to provide an “in-line” blank for referencing. Dissociation rate constants (koff) were calculated using the “koff-rate” calculation in ProteOn Manager v3.1 software.

[3] = molecular target: T5, murine FAP avi his, biotinylated (murine, UniProt P97321 27-761, biotin on the avi-tag); assay: SPR, bacterial supernatant;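 also: SPR at 25 °C with biotinylated human or murine FAP captured via neutravidin, aVH-containing bacterial supernatants diluted 1:3 as analyte, 600 s dissociation, blank supernatant without aVH as reference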
T5 construct: also called muFAP; mu FAP
Protocol: as §1

[4] = molecular target: T2, hu(NA1)BA-avi-His, biotinylated; assay: SPR, purified aVH
Protocol: CEACAM1-avi-his was again used as a negative control Immobilization of recombinant antigens (ligand): Antigen was diluted with PBST (10 mM phosphate, 150 mM sodium chloride pH 7.4, 0.005% Tween 20) to 10 μg/ml, then injected at 30 μl/minute at varying contact times, to achieve immobilization levels of 200, 400 or 800 response units (RU) in vertical orientation. […] Buffer (PBST) was injected along the sixth channel to provide an “in-line” blank for referencing. Association rate constants (kₒₙ) and dissociation rate constants (koff) were calculated using a simple one-to-one Langmuir binding model in ProteOn Manager v3.1 software by simultaneously fitting the association and dissociation sensorgrams. The equilibrium dissociation constant (KD) was calculated as the ratio koff/kₒₙ.

[5] = molecular target: T2, hu(NA1)BA-avi-His, biotinylated; assay: SPR, bacterial supernatant
Protocol: The off-rate of selected aVH clones was measured using a ProteOn XPR36 instrument (Biorad) at 25° C. with biotinylated hu(NA1)BA-avi-His immobilized on NLC chips by neutravidin capture. CEACAM1-avi-his was used as a negative control. Immobilization of recombinant antigens (ligand): Antigens were diluted with PBST (10 mM phosphate, 150 mM sodium chloride pH 7.4, 0.005% Tween 20) to 10 μg/ml, then injected at 30 μl/minute at varying contact times, to achieve immobilization levels of 400, 800 or 1600 response units (RU) in vertical orientation. Injection of analytes: Injection direction was changed to horizontal orientation and 5 individual aVH-containing supernatants that were diluted 1:3 with PBST were injected simultaneously at 60 μl/min along separate channels 1-5, with association times between 120 and 180s, and dissociation times of 800s. Diluted bacterial supernatant without aVH was injected along the sixth channel to provide an “in-line” blank for referencing. Dissociation rate constants (koff) were calculated using the “koff-rate” calculation in ProteOn Manager v3.1 software.

[6] = molecular target: T3, full-length human CEA with N-terminal …; assay: FRET (TagLite) on hu CEA-SNAP cells
Protocol: Binding of a selected set of purified aVH binders to their epitope on CEA-expressing cells was determined by Fluorescence Resonance Energy Transfer (FRET) analysis. For this analysis, the DNA sequence encoding for the SNAP Tag (plasmid purchased from Cisbio) was amplified by PCR and ligated into an expression vector, containing the full length human CEA sequence. The resulting fusion protein was comprised of full-length CEA with an N-terminal SNAP tag. HEK293 cells were transfected with 10 μg DNA using Lipofectamine 2000 as transfection reagent. After an incubation time of 20 h, cells were washed with PBS and incubated for 1 h at 37° C. in LabMed buffer (Cisbio) containing 100 nM SNAP-Lumi4Tb (Cibsio), leading to specific labeling of the SNAP Tag. Subsequently, cells were washed 4 times with LabMed buffer to remove unbound dye. […] Cells were then stored frozen at −80° C. for up to 6 months. Binding was measured by adding CEA-specific aVH binders at a concentration ranging from 0.005 up to 100 nM to labeled cells (100 cells per well) followed by addition of d2-labeled anti-his tag antibody (Cisbio, final concentration was 200 nM per well) as acceptor molecule for the FRET. […] The ratio of acceptor to donor emission was calculated and the ratio of the background control (cells only incubated with anti-his tag antibody) subtracted. Curves were analysed in GraphPad Prism5 (FIG. 9) and KDs calculated (Table 26).

Row | koff [3] | Kd [4] | koff [5] | Kd [6] | koff [2] | Binder | other results
1 | – | – | – | – | – | anti-MCSP aVH clone 57.1 (VHH) VHH: EVQLVESGGGLVQPGGSLRLSCAASGFNIKQNCIEWVRRAPGKGTELVANICHDIGSTRYADSVKGRFTISADTSKNTAYLQMNSLRAEDTAVYYCAAWEQKGFNYWGQGTTVTVSS | Kd [1]: 48 nM; koff [1]: 0.0142 s⁻¹; kon [1]: 295000 M⁻¹ s⁻¹
2 | – | – | – | – | – | anti-MCSP aVH clone 44 (VHH) VHH: EVQLVESGGGLVQPGGSLRLSCAASGFNIKDGYIDWVRRAPGKGTELVASIECTNGRATRYADSVKGRFTISCDTSKNTAYLQMNSLRAEDTAVYYCAYAGIGYYFYYWGQGTTVTVSS | Kd [1]: 109 nM; koff [1]: 0.0163 s⁻¹; kon [1]: 150000 M⁻¹ s⁻¹
3 | 0.0222 s⁻¹ | – | – | – | – | anti-FAP aVH P032.056 (VHH) VHH: EVQLVESGGGLVQPGGSLRLSCAASSFNIKDTYIGWVRRAPGKEEELVANIHCRSGYTRYADSVKGRFTISCDTSKNTAYLQMNSLRAEDTAVYYCAHSGSRYIYKYWGQGTTVTVSS | binding result [2]: no binding
4 | – | 7.26 nM | 0.00034 s⁻¹ | 10.4 nM | – | anti-CEA aVH P112.083 (VHH) VHH: EVQLVESGGGLVQPGGSLRLSCAASGFNIKDTCIGWVRRAPGKEEELVADICPYKGSTRYADSVKGRFTISADTSKNTAYLQMNSLRAEDTAVYYCAIVSARDGYYNYWGQGTTVTVSS | –
5 | – | 16.2 nM | 0.0016 s⁻¹ | 14.6 nM | – | anti-CEA aVH P112.068 (VHH) VHH: EVQLVESGGGLVQPGGSLRLSCAASGFNIKDTCIGWVRRAPGKEEELVAKICKYSGHTRYADSVKGRFTISADTSKNTAYLQMNSLRAEDTAVYYCAAVSVRDGHYNYWGQGTTVTVSS | –
6 | – | 135 nM | 0.0317 s⁻¹ | 28.3 nM | – | anti-CEA aVH P127.141 (VHH) VHH: EVQLVESGGGLVQPGGSLRLSCAASGFNIKDTCIGWVRRAPGKEEELVAGICEYTGSTRYADSVKGRFTISADTSKNTAYLQMNSLRAEDTAVYYCAIVSQSRSVYNYWGQGTTVTVSS | –
7 | – | 15.2 nM | 0.0395 s⁻¹ | 11.1 nM | – | anti-CEA aVH P124.037 (VHH) VHH: EVQLVESGGGLVQPGGSLRLSCAASGFNIKDTCIGWVRRAPGKEEELVAQICQYHGSTRYADSVKGRFTISADTSKNTAYLQMNSLRAEDTAVYYCAIVGQNYPVYNYWGQGTTVTVSS | –
8 | – | 96.2 nM | 0.0305 s⁻¹ | 28.6 nM | – | anti-CEA aVH P118.008 (VHH) VHH: EVQLVESGGGLVQPGGSLRLSCAASGFNIKDTCIGWVRRAPGKEEELVAYICNYTGYTRYADSVKGRFTISADTSKNTAYLQMNSLRAEDTAVYYCAITSYHGQGYNYWGQGTTVTVSS | –
9 | – | 296 nM | 0.00704 s⁻¹ | 74.3 nM | – | anti-CEA aVH P124.067 (VHH) VHH: EVQLVESGGGLVQPGGSLRLSCAASGFNIKDTCIGWVRRAPGKEEELVAAICEYKGYTRYADSVKGRFTISADTSKNTAYLQMNSLRAEDTAVYYCAIASPVDQYYNYWGQGTTVTVSS | –
10 | – | 102 nM | 0.033 s⁻¹ | 47.3 nM | – | anti-CEA aVH P118.093 (VHH) VHH: EVQLVESGGGLVQPGGSLRLSCAASGFNIKDTCIGWVRRAPGKEEELVADICPSYGGTRYADSVKGRFTISADTSKNTAYLQMNSLRAEDTAVYYCAIVSKIDQYYNYWGQGTTVTVSS | –
11 | 0.0151 s⁻¹ | – | – | – | 0.0141 s⁻¹ | anti-FAP aVH P054.035 (VHH) VHH: EVQLVESGGGLVQPGGSLRLSCAASGFNIKDTCIGWVRRAPGKEEELVANICGSYGHTRYADSVKGRFTISADTSKNTAYLQMNSLRAEDTAVYYCASSYTVYRSYAYWGQGTTVTVSS | –
12 | 0.0312 s⁻¹ | – | – | – | 0.0161 s⁻¹ | anti-FAP aVH P054.064 (VHH) VHH: EVQLVESGGGLVQPGGSLRLSCAASGFNIKDTCIGWVRRAPGKEEELVANICGSNGYTRYADSVKGRFTISADTSKNTAYLQMNSLRAEDTAVYYCASSYTVYRGYDYWGQGTTVTVSS | –
13 | 0.0294 s⁻¹ | – | – | – | 0.0125 s⁻¹ | anti-FAP aVH P053.020 (VHH) VHH: EVQLVESGGGLVQPGGSLRLSCAASGFNIKDTCIGWVRRAPGKEEELVARICGQIGSTRYADSVKGRFTISADTSKNTAYLQMNSLRAEDTAVYYCATSYTVYRSYDYWGQGTTVTVSS | –
14 | 0.0171 s⁻¹ | – | – | – | 0.00547 s⁻¹ | anti-FAP aVH P048.019 (VHH) VHH: EVQLVESGGGLVQPGGSLRLSCAASGFNIKDTCIGWVRRAPGKEEELVANICPKHGATRYADSVKGRFTISADTSKNTAYLQMNSLRAEDTAVYYCAYSGNVYNRYKYWGQGTTVTVSS | –
15 | – | – | – | – | – | anti-MCSP aVH clone 2 (VHH) VHH: EVQLVESGGGLVQPGGSLRLSCAASSFNIKDTYIGWVRRAPGKGTELVASIDCIYGYTRYADSVKGRFTISCDTSKNTAYLQMNSLRAEDTAVYYCAAQGYRLHYWGQGTTVTVSS | Kd [1]: 8 nM; koff [1]: 0.00339 s⁻¹; kon [1]: 458000 M⁻¹ s⁻¹
16 | – | 37.9 nM | 0.0599 s⁻¹ | 16.8 nM | – | anti-CEA aVH P118.089 (VHH) VHH: EVQLVESGGGLVQPGGSLRLSCAASGFNIKDTCIGWVRRAPGKEEELVASICQYSGYTRYADSVKGRFTISADTSKNTAYLQMNSLRAEDTAVYYCAITSHHGDYNYWGQGTTVTVSS | –
17 | 0.0106 s⁻¹ | – | – | – | – | anti-FAP aVH P031.033 (VHH) VHH: EVQLVESGGGLVQPGGSLRLSCAASGFNIKDTCIGWVRRAPGKEEELVANICGQYGQTRYADSVKGRFTISADTSKNTAYLQMNSLRAEDTAVYYCAKSGGRHGYEYWGQGTTVTVSS | binding result [2]: no binding
18 | 0.0176 s⁻¹ | – | – | – | – | anti-FAP aVH P034.001 (VHH) VHH: EVQLVESGGGLVQPGGSLRLSCAASGFNIKDTCIGWVRRAPGKEEELVANICGSIGATRYADSVKGRFTISADTSKNTAYLQMNSLRAEDTAVYYCAKSGGHKGYRYWGQGTTVTVSS | binding result [2]: no binding
19 | – | – | – | – | 0.00316 s⁻¹ | anti-FAP aVH P058.068 (VHH) VHH: EVQLVESGGGLVQPGGSLRLSCAASGFNIKDTCIGWVRRAPGKEEELVANICQTHGYTRYADSVKGRFTISADTSKNTAYLQMNSLRAEDTAVYYCAYKGGGRYYDYWGQGTTVTVSS | binding result [3]: no binding
20 | 0.0106 s⁻¹ | – | – | – | 0.00385 s⁻¹ | anti-FAP aVH P034.007 (VHH) VHH: EVQLVESGGGLVQPGGSLRLSCAASGFNIKDTCIGWVRRAPGKEEELVANICGGDGHTRYADSVKGRFTISADTSKNTAYLQMNSLRAEDTAVYYCATSYTVYRYYYWGQGTTVTVSS | –
